Source: CN106467574A (UNIV FUDAN, dated 2017)

How the values were obtained:
[1] = target: T1, 鼠源TF (mouse tissue factor on B16-F10 cells) (mouse, UniProt P20352 29-294); assay: flow cytometry on B16-F10 cells
T1 construct: whole, on cells
T1 sequence (looked up): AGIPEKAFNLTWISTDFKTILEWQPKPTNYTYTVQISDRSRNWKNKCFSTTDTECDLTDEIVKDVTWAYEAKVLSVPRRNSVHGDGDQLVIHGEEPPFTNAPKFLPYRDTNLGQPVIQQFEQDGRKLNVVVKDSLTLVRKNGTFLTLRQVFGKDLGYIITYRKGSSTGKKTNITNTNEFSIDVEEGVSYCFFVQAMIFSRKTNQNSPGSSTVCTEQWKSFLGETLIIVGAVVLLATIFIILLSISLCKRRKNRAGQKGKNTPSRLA

[2] = target: 人源TF, 细胞表面TF (human tissue factor on the surface of human tumour cells) (human, UniProt P13726 33-295); assay: cell-based or functional assay

- binding result [1]: no binding (tested: 10μg/mL)
- 抗FXa生成活性 IC50 (BxPC-3 cells) [2]: 9 nM
- 抗FXa生成活性 IC50 (MDA-MB-231 cells) [2]: 6.4 nM
B1: TF-mAb-SC1 (antibody, IgG2b, V domains shown)
VH: QVQLQQPGAELVRPGASVKLSCKASGYSFISYWMNWVKQRPGQGLEWIGMIYPADSETRLNQKFKDKATLTVDKSSSTAYMQLSSPTSEDSAVYYCAREDYGSSDYWGQGTTLTVSS
VL: EILLTQSPAIIAASPGEKVTITCSASSSVSYMNWYLQKPGSSPKIWIYGISNLASGVPARFSGSGSGTSFSFTINSMETEDVATYYCQQKSSFPWTFGGGTKLEIK
notes: Mouse monoclonal antibody from a hybridoma, purified from ascites
